The Kd is the equilibrium constant for the complex coming apart. Lower therefore signals a tighter complex.

What all share (test): SPR
Test [1] addresses NL3A1A2 (rat neuroligin 3 cholinesterase-like region, with inserts A1 and A2) (rat, UniProt Q62889 42-633).
For test [2], the target named is NL2A (rat neuroligin 2 cholinesterase-like region, with insert A) (rat, UniProt Q62888 46-612).
Test [3] deals with NL1AB (rat neuroligin 1 cholinesterase-like region, with inserts A and B) (rat, UniProt Q62765 48-638).
Sequence of NL1AB (rat neuroligin 1 cholinesterase-like region, with inserts A and B) (Q62765 48-638): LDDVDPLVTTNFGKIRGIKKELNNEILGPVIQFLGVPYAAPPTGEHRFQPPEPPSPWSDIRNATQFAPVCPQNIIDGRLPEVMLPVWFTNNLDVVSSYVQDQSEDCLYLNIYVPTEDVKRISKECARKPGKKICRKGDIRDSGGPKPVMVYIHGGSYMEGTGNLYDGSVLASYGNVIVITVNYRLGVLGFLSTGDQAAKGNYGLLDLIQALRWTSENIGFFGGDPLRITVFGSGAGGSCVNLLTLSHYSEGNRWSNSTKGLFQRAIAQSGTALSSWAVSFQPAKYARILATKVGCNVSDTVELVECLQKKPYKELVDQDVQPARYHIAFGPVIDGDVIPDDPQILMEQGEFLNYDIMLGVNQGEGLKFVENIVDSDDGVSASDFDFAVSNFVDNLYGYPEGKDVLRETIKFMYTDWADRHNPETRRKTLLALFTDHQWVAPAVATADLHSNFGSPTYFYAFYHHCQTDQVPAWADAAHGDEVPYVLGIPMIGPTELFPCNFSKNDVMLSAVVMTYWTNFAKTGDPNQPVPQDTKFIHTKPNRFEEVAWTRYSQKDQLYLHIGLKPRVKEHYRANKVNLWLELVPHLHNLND

Sequence of NL2A (rat neuroligin 2 cholinesterase-like region, with insert A) (Q62888 46-612): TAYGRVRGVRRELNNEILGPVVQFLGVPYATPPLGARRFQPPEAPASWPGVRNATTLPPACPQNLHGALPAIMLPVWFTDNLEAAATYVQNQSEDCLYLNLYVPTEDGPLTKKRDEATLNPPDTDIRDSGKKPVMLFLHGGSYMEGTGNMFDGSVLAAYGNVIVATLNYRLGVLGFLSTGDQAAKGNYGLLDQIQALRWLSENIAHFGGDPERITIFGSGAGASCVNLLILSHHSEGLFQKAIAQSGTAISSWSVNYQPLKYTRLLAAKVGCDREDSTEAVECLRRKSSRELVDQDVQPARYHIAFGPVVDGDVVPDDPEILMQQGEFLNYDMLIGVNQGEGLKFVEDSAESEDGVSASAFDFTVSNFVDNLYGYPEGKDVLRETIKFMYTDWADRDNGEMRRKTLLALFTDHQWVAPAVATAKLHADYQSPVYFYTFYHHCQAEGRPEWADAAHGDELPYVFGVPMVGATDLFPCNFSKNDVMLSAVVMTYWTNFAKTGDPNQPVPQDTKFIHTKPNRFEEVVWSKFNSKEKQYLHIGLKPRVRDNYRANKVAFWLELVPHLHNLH
Sequence of NL3A1A2 (rat neuroligin 3 cholinesterase-like region, with inserts A1 and A2) (Q62889 42-633): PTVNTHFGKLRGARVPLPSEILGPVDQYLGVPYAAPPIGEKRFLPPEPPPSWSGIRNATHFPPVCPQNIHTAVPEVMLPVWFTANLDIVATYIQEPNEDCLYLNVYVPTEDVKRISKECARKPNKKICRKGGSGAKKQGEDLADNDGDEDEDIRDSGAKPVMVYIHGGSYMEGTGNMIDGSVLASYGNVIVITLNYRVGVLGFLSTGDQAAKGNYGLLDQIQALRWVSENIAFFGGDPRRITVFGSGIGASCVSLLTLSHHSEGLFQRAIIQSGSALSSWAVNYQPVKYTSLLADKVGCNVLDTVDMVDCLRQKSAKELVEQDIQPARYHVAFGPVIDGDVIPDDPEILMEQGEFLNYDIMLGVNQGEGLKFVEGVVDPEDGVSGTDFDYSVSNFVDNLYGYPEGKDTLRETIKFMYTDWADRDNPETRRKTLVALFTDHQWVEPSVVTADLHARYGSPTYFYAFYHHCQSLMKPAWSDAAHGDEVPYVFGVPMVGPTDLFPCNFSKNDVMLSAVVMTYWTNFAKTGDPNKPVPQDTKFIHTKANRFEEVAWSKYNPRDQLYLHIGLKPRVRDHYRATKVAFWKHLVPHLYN

B1: β-NRX2+4 (rat β-neurexin 2 LNS domain, with splice insert 4) (domain or fragment)
chain: not shown
modifications: N-glycosylation at Asn186
Take B1: the values for the Kd in test [1], in test [2] and in test [3] were 48 µM, 3.01 µM and 5.66 µM, respectively.

B2: β-NRX1+4 (mouse β-neurexin 1 LNS domain, with splice insert 4) (domain or fragment)
chain: not shown
modifications: N-glycosylation at Asn184
As to B2, the Kd in test [1] is 21 µM; in test [2], 3.17 µM; in test [3], 2.82 µM.
